# Data published in the supplement of paper PMC10724198.
# ± gives the standard deviation of the averaged measurements.
# Tests used:
# [1] = tested on: Saccharomyces cerevisiae; experiment: protein stability index of tFT-peptide fusion (C-terminal peptide) (PSI (0-1 scale)); higher = more stable (slower turnover); settings: genetic background: wild type; temperature: 30 C
# [2] = tested on: Saccharomyces cerevisiae; experiment: as above
# Protocol: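 MPS profiling in S. cerevisiae of the tFT-X12 degron library: putative degron peptides plus stable controls, 12 aa, fused to the C-terminus of a sfGFP-mCherry timer. Cells are FACS-sorted into 8 mCherry/sfGFP bins and deep-sequenced. PSI runs from 0 (unstable) to 1 (stable). Backgrounds are wild type, das1Δ and doa10Δ at 30 °C, and wild type, das1Δ, cdc34-1 and cdc53-1 at 37 °C; 2-3 technical replicates each.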
# [3] = genetic background: cdc34-1, temperature: 37 C
# [4] = genetic background: cdc53-1, temperature: 37 C
# [5] = genetic background: das1 deletion, temperature: 30 C
# [6] = genetic background: das1 deletion, temperature: 37 C
# [7] = genetic background: doa10 deletion, temperature: 30 C
# [8] = genetic background: wild type, temperature: 30 C
# [9] = genetic background: wild type, temperature: 37 C
# 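Also: PSI is a weighted mean of sequencing reads over stability bins, variants kept only with over 10 reads, mCherry proximal and sfGFP distal, peptide attached via GGGS linker.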
Sequence,protein stability index [1],"protein stability index [2, 3]","protein stability index [2, 4]","protein stability index [2, 5]","protein stability index [2, 6]","protein stability index [2, 7]","protein stability index [2, 8]","protein stability index [2, 9]"
LVPLSLLLCFFV,0.3058 ± 0.0028,0.515 ± 0.027,0.5647 ± 0.0036,0.411 ± 0.028,0.551 ± 0.0063,0.178 ± 0.0019,0.205 ± 0.015,0.354 ± 0.0088
SSLAKFQLISTY,0.394 ± 0.017,0.429 ± 0.0045,0.464 ± 0.011,0.316 ± 0.04,0.508 ± 0.049,0.267 ± 0.003,0.305 ± 0.016,0.46 ± 0.0088
LPVSLWLVCSFF,0.324 ± 0.0038,0.524 ± 0.009,0.543 ± 0.02,0.432 ± 0.023,0.5682 ± 0.00058,0.345 ± 0.023,0.358 ± 0.03,0.5283 ± 0.0021
LSFLLLLGCFGS,0.466 ± 0.076,0.5966 ± 0.0035,0.6236 ± 0.0046,0.476 ± 0.019,0.59 ± 0.027,0.453 ± 0.017,0.462 ± 0.014,0.589 ± 0.018
IFSTQMVRFSLL,0.362 ± 0.019,0.629 ± 0.052,0.7324 ± 0.0061,0.662 ± 0.0074,0.7692 ± 0.0033,0.261 ± 0.0058,0.272 ± 0.017,0.422 ± 0.018
RSNLSKSWHRIG,0.207 ± 0.038,0.538 ± 0.065,0.689 ± 0.014,0.645 ± 0.028,0.743 ± 0.015,0.101 ± 0.011,0.11 ± 0.029,0.212 ± 0.074
NCVDRFKGQKRM,0.505 ± 0.031,0.655 ± 0.055,0.723 ± 0.029,0.64 ± 0.027,0.711 ± 0.0013,0.422 ± 0.021,0.491 ± 0.023,0.6341 ± 0.0052
IFVFVSFPSCVL,0.468 ± 0.012,0.603 ± 0.062,0.644 ± 0.022,0.56 ± 0.041,0.627 ± 0.0096,0.35 ± 0.0042,0.399 ± 0.026,0.568 ± 0.03
CMAWLSVLKTLF,0.495 ± 0.04,0.709 ± 0.082,0.744 ± 0.023,0.63 ± 0.017,0.756 ± 0.037,0.387 ± 0.037,0.421 ± 0.012,0.615 ± 0.053
CFFICGVFVFLM,0.3651 ± 0.00098,0.21 ± 0.07,0.338 ± 0.029,0.257 ± 0.03,0.435 ± 0.014,0.229 ± 0.01,0.244 ± 0.034,0.4088 ± 0.0015
NMVSMVVVIFGV,0.275 ± 0.015,0.248 ± 0.014,0.37 ± 0.1,0.23 ± 0.039,0.437 ± 0.024,0.196 ± 0.021,0.24 ± 0.02,0.386 ± 0.016
FELSVSVFQSVV,0.338 ± 0.031,0.318 ± 0.048,0.388 ± 0.0039,0.374 ± 0.023,0.3368 ± 0.002,0.409 ± 0.048,0.384 ± 0.044,0.318 ± 0.0051
RIRLYWVLRRLG,0.183 ± 0.0066,0.595 ± 0.008,0.693 ± 0.013,0.571 ± 0.023,0.758 ± 0.0098,0.0772 ± 0.023,0.0992 ± 0.031,0.129 ± 0.0085
FWHGRCPGLYLV,0.27 ± 0.0087,0.583 ± 0.11,0.639 ± 0.018,0.607 ± 0.012,0.7263 ± 0.0042,0.163 ± 0.009,0.169 ± 0.03,0.304 ± 0.005
NFFIQFHNLLFP,0.718 ± 0.0086,0.754 ± 0.017,0.765 ± 0.037,0.664 ± 0.0089,0.769 ± 0.022,0.653 ± 0.017,0.6712 ± 0.0036,0.774 ± 0.027
LFNRCCTILVVW,0.299 ± 0.016,0.189 ± 0.025,0.22 ± 0.026,0.198 ± 0.02,0.343 ± 0.01,0.181 ± 0.0051,0.2 ± 0.029,0.316 ± 0.021
FSFEGVLVPLLV,0.396 ± 0.015,0.31519 ± 3.7e-05,0.301 ± 0.043,0.288 ± 0.036,0.4113 ± 0.00044,0.249 ± 0.0058,0.287 ± 0.033,0.384 ± 0.0086
GLYFFVVRIFKV,0.27 ± 0.059,0.219 ± 0.021,0.345 ± 0.075,0.221 ± 0.039,0.437 ± 0.013,0.167 ± 0.0056,0.184 ± 0.022,0.336 ± 0.0096
GRGLRVCWVWSG,0.286 ± 0.016,0.622 ± 0.054,0.7084 ± 0.0069,0.605 ± 0.019,0.7428 ± 0.0054,0.147 ± 0.013,0.18 ± 0.015,0.387 ± 0.013
IFFYQLYVDRLC,0.151 ± 0.059,0.227 ± 0.05,0.292 ± 0.0067,0.229 ± 0.035,0.412 ± 0.011,0.0857 ± 0.012,0.0803 ± 0.01,0.0746 ± 0.0054

Sequence,protein stability index [1],"protein stability index [2, 3]","protein stability index [2, 4]","protein stability index [2, 5]","protein stability index [2, 6]","protein stability index [2, 7]","protein stability index [2, 8]","protein stability index [2, 9]"
ERNERKYKIKIT,0.374 ± 0.041,0.699 ± 0.018,0.724 ± 0.035,0.609 ± 0.042,0.715 ± 0.026,0.179 ± 0.013,0.239 ± 0.037,0.461 ± 0.034
GPGTWLFCFVRF,0.509 ± 0.027,0.504 ± 0.032,0.55 ± 0.0069,0.432 ± 0.029,0.602 ± 0.0065,0.475 ± 0.017,0.42 ± 0.022,0.612 ± 0.031
PPSLPPLISFSP,0.729 ± 0.03,0.7 ± 0.039,0.7808 ± 0.0052,0.656 ± 0.015,0.7661 ± 0.0014,0.669 ± 0.011,0.6624 ± 0.0039,0.7407 ± 0.0059
SGVVWFYIFCLS,0.361 ± 0.011,0.4729 ± 0.00067,0.535 ± 0.0018,0.322 ± 0.038,0.57 ± 0.015,0.254 ± 0.014,0.279 ± 0.043,0.494 ± 0.023
PLLSATLTRRLA,0.475 ± 0.024,0.622 ± 0.041,0.665 ± 0.0088,0.684 ± 0.0075,0.692 ± 0.0072,0.162 ± 0.015,0.19 ± 0.03,0.386 ± 0.0044
GVQFSVKWVKLG,0.225 ± 0.019,0.519 ± 0.022,0.7 ± 0.0093,0.616 ± 0.014,0.734 ± 0.0015,0.106 ± 0.011,0.109 ± 0.025,0.18 ± 0.0065
LSCCIVLLIIFV,0.338 ± 0.055,0.245 ± 0.021,0.35 ± 0.021,0.27 ± 0.026,0.39762 ± 0.00019,0.253 ± 0.0077,0.262 ± 0.029,0.341 ± 0.025
PSPFHSFYLRLI,0.398 ± 0.033,0.5716 ± 0.0014,0.643 ± 0.009,0.579 ± 0.011,0.712 ± 0.028,0.263 ± 0.0033,0.249 ± 0.014,0.483 ± 0.0017
LCCTLFFCYSYH,0.424 ± 0.013,0.569 ± 0.032,0.547 ± 0.064,0.418 ± 0.017,0.554 ± 0.038,0.374 ± 0.0053,0.388 ± 0.019,0.617 ± 0.098
VSIRVVVWVSWG,0.226 ± 0.032,0.133 ± 0.0081,0.2248 ± 0.00098,0.145 ± 0.022,0.259 ± 0.011,0.121 ± 0.0089,0.143 ± 0.02,0.223 ± 0.013
CLNPCVRWDGHV,0.708 ± 0.0077,0.739 ± 0.065,0.7589 ± 0.0016,0.651 ± 0.039,0.77 ± 0.0062,0.661 ± 0.05,0.687 ± 0.028,0.732 ± 0.011
VVSLAVVGRFLV,0.2243 ± 0.0017,0.616 ± 0.061,0.7 ± 0.011,0.586 ± 0.024,0.7 ± 0.031,0.118 ± 0.018,0.147 ± 0.018,0.263 ± 0.03
VFSFGLLFQVCR,0.502 ± 0.019,0.598 ± 0.04,0.625 ± 0.025,0.435 ± 0.022,0.6144 ± 0.0034,0.4081 ± 0.0038,0.452 ± 0.025,0.631 ± 0.053
VRGLGFRWVWGW,0.711 ± 0.038,0.747 ± 0.034,0.762 ± 0.011,0.664 ± 0.0089,0.7668 ± 0.0056,0.666 ± 0.011,0.668 ± 0.013,0.772 ± 0.018
SFYVCVPVLWLV,0.201 ± 0.0038,0.248 ± 0.024,0.29 ± 0.036,0.27 ± 0.029,0.407 ± 0.0054,0.136 ± 0.0076,0.118 ± 0.015,0.146 ± 0.028
TTATLSFAICAV,0.4276 ± 0.0029,0.412 ± 0.01,0.455 ± 0.012,0.315 ± 0.022,0.473 ± 0.0063,0.27 ± 0.0051,0.325 ± 0.022,0.452 ± 0.014
ILVFHFWPFLVR,0.426 ± 0.04,0.411 ± 0.046,0.435 ± 0.015,0.351 ± 0.018,0.523 ± 0.018,0.418 ± 0.027,0.35 ± 0.017,0.503 ± 0.017
GVLIFLSFQPIA,0.431 ± 0.037,0.539 ± 0.021,0.617 ± 0.023,0.429 ± 0.03,0.599 ± 0.0088,0.3783 ± 0.0017,0.414 ± 0.013,0.556 ± 0.0093
FVSHRRFSLFLY,0.209 ± 0.02,0.584 ± 0.038,0.691 ± 0.011,0.602 ± 0.019,0.726 ± 0.046,0.124 ± 0.0019,0.143 ± 0.021,0.203 ± 0.019
